In patent publication US11040083B2, “Polypeptides comprising vinculin binding sites for the treatment of proliferation and/or adhesion related diseases” (PARIS SCIENCES ET LETTRES—QUARTIER LATIN, priority 2015, dated 2021):

B1: A483: amino acids 483 to 633 of SEQ ID NO: 1 (IpaA), containing IpaA VBS1, VBS2 and VBS3 (protein, listed as Shigella flexneri)
chain: GDTYLTRETIFEASKKVTNSLSNLISLIGTKSGTQERELQEKSKDITKSTTEHRINNKLKVTDANIRNYVTETNADTIDKNHAIYEKAKEVSSALSKVLSKIDDTSAELLTDDISDLKNNNDITAENNNIYKAAKDVTTSLSKVLKNINKD
modifications: A483 / IpaA (483-633)
B2: A524: IpaA 524-633, containing only IpaA VBS1 and VBS2 (protein, listed as Shigella flexneri)
chain: KSKDITKSTTEHRINNKLKVTDANIRNYVTETNADTIDKNHAIYEKAKEVSSALSKVLSKIDDTSAELLTDDISDLKNNNDITAENNNIYKAAKDVTTSLSKVLKNINKD
modifications: A524 / IpaA (524-633)
notes: IpaA 524-633, containing only IpaA VBS1 and VBS2

Assays:
talin H1-H4 = talin H1-H4 (Homo sapiens, UniProt Q9Y490); assay: Native-PAGE gel shift; assay type: binding
Protocol: Talin H1-H4 and IpaA peptides/proteins were incubated in binding buffer for 1 hour at 4° C. After incubation, the protein/peptides were mixed in a 2× Native loading buffer (62.5 mM Tris pH 6.8, Glycerol 25%) and separated by Tris-Glycine Native-PAGE electrophoresis. Gels were stained using standard colloidal Coomassie stain.
Talin H1-H4 and IpaA peptides/proteins at different molar ratios were incubated in binding buffer (25 mM Tris pH 7.4, 100 mM NaCl and 1 mM β-Mercaptoethanol) for 1 hour at 4° C. After incubation, the protein/peptides were mixed in a 2× Native loading buffer (62.5 mM Tris pH 6.8, Glycerol 25%) and separated by Tris-Glycine Native-PAGE electrophoresis. The Native PAGE electrophoresis gels were stained using standard colloidal Coomassie stain.

[1] = tested on: C2.7 mice myoblasts cells; assay: Cell adhesion kinetics on fibronectin-coated surfaces; assay type: cell-based
Protocol: C2.7 mice myoblasts cells were seeded at 2.5×10^5 cells in a 10 cm cell culture petri dish (TPP). Cells were transfected with 15 μg of pcDNA3.1 NT GFP-A483 plasmid, with 45 μL JetPEI transfection reagent (Polyplus) overnight following manufacturer's recommendations. Control and transfected cells were detached and washed in a large volume of DMEM/Hepes (ref. 21063-045, Life Technologies) with 0.2% BSA and 50 ng/mL LPA (ref. L7260, Sigma-Aldrich) without FCS. Some 15,000 control/IpaA cells per well were seeded (DMEM/BSA/LPA, no FCS) in 24-well plates added with 5 mm rounded coverslips coated with 25 μg/mL fibronectin and blocked with 2% BSA-PBS 1×. Plates containing cells were centrifuged at 1000 g for 2 minutes, incubated at 37° C. and fixed (3.7% PFA-PBS) at different time points. Coverslips were stained with an anti-vinculin antibody+Phalloidin as described before (Immunostaining) or with a solution containing 1/200 DAPI (1 mg/mL) for number-of-cells adhesion tests. All coverslips were washed and mounted on slides using Dako mounting medium (Invitrogen) and observed using a confocal microscopy with rotary discs (Roper Scientific®).
To confirm this latter result at the scale of a whole cell population, we performed assays where cells, resuspended by trypsinization, were allowed to adhere for define amounts of time on Fn-coated substrates before washing. Then the number of cells that remained attached to the substrate was measured.

C2.7 myoblastic cells = assay: Plating on fibronectin-coated PDMS membranes of different stiffness; assay type: cell-based; details: substrate stiffness 1.5 kPa and 15 kPa
Protocol: As previously observed, A483 induced the formation of large adhesion structures in C2.7 cells (FIG. 20A). While A483 transfectants induced a spectacular 5.6-fold increase in the number of adherent cells after 60 seconds of incubation, this increase was reduced to 1.3-fold when adhesion was tested after 30 min. These findings were quantified by measuring the resistance to shear stress of cells under flow as a function of the incubation time with the substrate in microfluidic chambers (FIG. 20B). Thus, through its direct binding via IpaA VBS3/TBS or indirect unveiling of binding sites on vinculin “supra-activated”, A483 may “by-pass” mechanosensing normally associated with the initial steps of cell adhesions' formation. While we cannot rule out the possibility that A483 induces an original ex-nihilo adhesion structure, our current results rather argue that it allows the bypassing of actomyosin-dependent mechanosensing steps that would lead to vinculin supra-activation at high actomyosin contraction forces. To further test this, we plated the C2.7 myoblastic cells on various fibronectin-coated PDMS membranes showing different stiffness. As expected, at low substrate stiffness (1.5 kPa), control cells remained spread and isolated, whereas at high substrate stiffness (15 kPa), cells differentiated into myotubes (FIG. 20C).

MEF cells = assay: TIRF microscopy of focal adhesion markers after ROCK inhibitor Y-27632; assay type: cell-based; details: Paxillin, Vinculin, VASP; after Rho-kinase inhibitor Y-27632; preliminary
Excerpt: FIG. 21 is a set of images showing that IpaA prevents the disassembly of focal adhesions induced by the relaxation of the actomyosin contraction. MEF cells were transfected with focal adhesion proteins Paxillin-Cherry (PAX), Vinculin-Cherry (VIN) or VASP-Cherry (VASP). CTRL: single transfection; A483: cells were co-transfected with GFP-A483. The intensity of focal adhesion proteins (visualized as white dots) is shown at the indicated time points in seconds after the addition of the ROCK inhibitor Y-27632 by TIRF microscopy. A483 prevents the destabilization of FA markers induced by the ROCK inhibitor observed in control cells.
In preliminary experiments, we have analyzed the role of actomyosin contraction on the recruitment of FA markers linked to the supra-activation of vinculin, by treating cells with the Rho-kinase inhibitor Y-27632. The disappearance of markers from FAs was analyzed following in real-time using total internal reflection (TIRF) microscopy. […] Strikingly, VASP, a marker of mature FAs, was also stabilized by A483, while previous studies had shown that this FA marker was not stabilized by active vinculin, deficient for head-tail intra-molecular interaction.

melanocytes = assay: Time lapse cell migration; assay type: cell-based; details: 6 movies per sample, preliminary
[2] = tested on: C2.7 mice myoblasts cells; assay: Immunostaining of focal adhesions in transfected cells; assay type: cell-based; details: cells plated for 16 hours
Protocol: C2.7 mice myoblasts cells were seeded at 2.5×10^4 cells in 5 mm rounded cell culture coverslips. Cells were transfected with 3 μg of pcDNA3.1 NT GFP-A483 plasmid, with 6 μL JetPEI transfection reagent (Polyplus) overnight following manufacturer's recommendations. Control and GFP-A483 transfected cells were fixed (3.7% PFA-PBS), permeabilized (0.1% Triton X-100, Sigma-Aldrich) and incubated with a 1/200 monoclonal m11.5 anti-vinculin antibody (ref. V4505, Sigma-Aldrich). Coverslips were washed and incubated with a 1/200 anti-mouse secondary antibody coupled to Alexa 546 (Jackson Research) and 1/200 Phalloidin A633 (Invitrogen), washed and mounted on slides using Dako mounting medium (Invitrogen). Samples were observed using a confocal microscopy with rotary disc (Roper Scientific®). Peripheral and ventral focal adhesion sizes (vinculin) were separated in three different categories (Small/None, Medium and Large) and the size of their focal adherences scored from three independent experiments. The focal adhesion size's distributions between the control and GFP-A483 transfected cells were compared using a Pearson's Chi-squared test.

Chain of talin H1-H4 (Q9Y490 482-636): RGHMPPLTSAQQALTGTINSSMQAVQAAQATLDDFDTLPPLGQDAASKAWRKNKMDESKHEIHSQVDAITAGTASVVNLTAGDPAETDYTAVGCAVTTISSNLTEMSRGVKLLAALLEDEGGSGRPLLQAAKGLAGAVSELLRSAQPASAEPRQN

Molecule | concentration at which the complex with talin H1-H4 / migration shift could be detected (talin H1-H4) | increase in the number of adherent cells ([1]; adhesion tested after 30 min) | increase in the number of adherent cells ([1]; after 60 seconds of incubation) | myotube formation (C2.7 myoblastic cells) | stabilization of FA markers (MEF cells) | effect on cell migration / motility (melanocytes) | formation of a complex with talin H1-H4 (talin H1-H4) | focal adhesions (FA) in transfected cells [2]
B1 | ≤ 5 µM | 1.3 fold | 5.6 fold | formed myotubes not only at high, but also at low substrate stiffness | stabilization of all FA markers studied | strong effect on cell migration |  | 
B2 |  |  |  |  |  |  | no migration shift could be detected | not observed
